Reference: the nanobody polyreactivity screen of Harvey et al. (2022)

Test: yeast display, Sf9 membrane polyspecificity reagent, FACS + sequencing; frameworks hold sequencing errors
Procedure, shortened: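 Using colony PCR, genes from sorted yeast display clones were amplified, then sequenced on MiSeq at 2 × 250 and filtered by CDR length. The clones had been stained with 10% biotinylated, detergent-solubilized Sf9 membrane reagent for 1 hour at 4 °C and sorted by FACS into low and high (top ~1%) gates on anti-HA and streptavidin fluorescence. Polyreactivity labels come from the gate of origin.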

Sequence	polyreactivity (PSR sort gate)
QVQLVESGGGLVQAGGILRLSCAASGFIFRLYAKGWYRQAPGKERGLVAAISSGTSTYYADSVKGRFTISRDNAKNTVYLQMNSLIPEDTAVYYCAARISRYPQDDSDYWGQGTQVTVSS	high polyreactivity
QVQLVESGGGVVQAGGSLRLSCAASGSTFVFYTMGWSRQAPGKEREFVASISGSGGSTYYADSVKGRFTISRDNAKNTVYLQMNSLKPEDTAVYYCAAGYPYYYWTPYYYWGQGTQVTVSS	high polyreactivity
QVHLVESGGGLVQAGGSLRLTCAASGFTFQGYAMGRYRQAPGKERELVAAISIGGVRTYYADSVKGRFTISRDNAKNTVYLQMNSLKPEDTAVYYCAKDGSKLSSYNYWGQGTQVTVSS	high polyreactivity
QVQLVESGGGLVQAGGSLRLSCAASGIIFFWNAMGWYRQAPGKERELVAAISSGGSTYADSVKGRFTISRDNAKNTVYLQMNSLKPEDTAVYYCAARFYHGYRPYSAIYGYGYWGQGTQVTVSS	low polyreactivity
QVQLVESGGGLVQAGGSLRLSCAASGFTFRRNVIGWYRQAPGKERELVAAIRGSDGSTYYADSVKGRFTNSRDNAKNTVYLQMNSLKPEDTAVYYCNVVGIGLYRKMGYWGQGTQVTVSS	high polyreactivity
QVQLVESGGGLVQAGGSLRLICAASGRTYRLYAMGWYRQAPGKERELVAAISYSDGRTYYADSVKGRFTISRDNAKNTVYLQMNSLKPEDTALYYCAAETLYVSPYFYVVQYDYWGQGTQVTVSS	high polyreactivity
QVQLVESGGGLDQAGGSLRLICAASGRTYDTNAMGWYRQAPGKEREFVAAINTGGNTYYADSVKGRFTISRDNAKNTVYLQMNSLIPEDTAVYYSAAYYYYFYHKVIWYELDYWGQGTQVTLSS	low polyreactivity
QVQLVESGGGLVQAGGSLRLSCAASGSTFQWYAMGWYRQAPGKERELVAAITKSGGSTYYADSVKGRFTISRDNAKNTVYLQMNSLKPEDTAVYYCAAGFWYYATEYDYWGQGTQVTVSS	low polyreactivity
QVQLVVSGGGLVHAGGSLRLSCAASGNTIFYYDLGGYIQAPGKERELVADITSRGTRTYYADSVKGRFTISRDKAKNTVYLQMNSLKPEDTAVYYCNKARGVAYDWGQGTQVTVSS	high polyreactivity
QVQLVESGGGLVQAGGSLRLSCAASGFTFWYYAMGWYRQAPGKERELVATITSGDSTKYADSVKGSFTISRDNAKNTVFLQMNSLNPEDNAVYYCAAEKVLPFIGYDYWGQGTQVTVSS	low polyreactivity
QVQHVESGGGLVQAGGSLRLSCAASGSTFDYNAMGWYRQAPGKERELVAAISFIGGATDYADCVKGRFTISRDNAKNTVYLLMNSLKPEDSGVYYCAADTTSVKDGTFYSWGQGTQVTVSS	low polyreactivity
QVQLVESGGGLVQAGGSLRLSCAASGRTFGSYVMGWYRQAPGKERELVATISRRGGTTYYADSVKGRYTISRDNAKNTVYLQMNSLKPEDTAVYYCAAKYFGTRYDYWGQGTQVTVSS	high polyreactivity
QVQLVESGGGLVQAGGSLRLSCAASGSTFAYAMGCYRQAPGKERELVAAIRTTGGSTYYADSVKGRFTISRDNAKNTVYFQMNSLNPEDSAVYYCAAVWGYGQYGSKYYYKYGYWGQGTQVTVSS	high polyreactivity
QVQLVESGGGLVQAGGSLRLSCAPSGLIFGRYAMGWYRQAPGKERELVAAISSSGVRTYYADSVKGRFTISRDNAKNTVYLQMNSLKPEDTAVYYCAAAYWSSREDTVIKRYYWGQGTQVTVSS	high polyreactivity
QVQLVESGGGLVQAGGSRRLSCAASGSIFPVYAMGWYRQAPGKERELVASISTGGSTYYADSVKGRFTISRDNAKNTVYFQLNSLKPEDTAVYYCAATGWAYGYGYGYWGQGTQVTESS	low polyreactivity
QVQLVESGGGLVQAGGRLRLSSAASRIIFRDNDMGWYRQAPGKERELVASISDSGGSTYYADSVKGRFTISRDNAKNTVYLQKNSLKSEATAVYYCAAPYLSLYLYDYWGQGTQVTVSS	low polyreactivity
QVQLVESGAGLVQAGGSLRLSCAASGSIFLYNDMGWYRQAPGKERELVAAITSDGSTNYADSVKGRFTISRDNAMNTVYLQMNSLKPEDNAVYYCAADALWFYLNWYYGGTAYGYWGQCTQVTVSS	low polyreactivity
QVQLVESGGGLVQAGGSLRISCAASGLTFQYNAMGWYRQAPGKERELVAAISSSGGSTYYADSVKGRFTISRDNAKNTVYLQMNSLKPEDTAVYYCNAYSQSWNFYGDGDYWVQGTQVTVSS	low polyreactivity
QVQLVESGGGLVQAGGSLRLSCAASGRIFGRYAMGWYRQAPGKERELVAAISGGGSTNYADSVKGRFTISRDNAKNTVYLQMNSLKPEDTAVYYCAADDDWSGVEFDYWGQGTQVTVSS	low polyreactivity
QVQLVESGGGLVQAGGSLRLSCAASGSTSVKYAMGWYRQAPGKERELVAAIRKRGDSTYYADSVKGRFTISRDNAKNTVYLQMNSLKPEDTAVYYCAAQYLRGRGYWGQGTQVTVSS	low polyreactivity
QVQLVESGGGLVQAGGSLRLSCAASGFIFWWYAMGWYRQAPGKERELVATITASVGSTNYADSVKGRFTISRDTAKNTVYLQMNSLKPEDTAVYYCATDIIGAIRDWDHTRMDYWGQGTQVTVSS	low polyreactivity
QVQLVESGGGLVQAGGSLRLSCAASGRISLGYAMGWYRQAPGKERELVAAITRGGTTSYAHSVKGRFTISRDNAKNTVYLQMNSLKPEDTAVYYCAVPAGYFGKWTYYYWGQGTQVTVSS	high polyreactivity
QVQLVESGGGLVQAGGSLRLSCAASGRTFGSYAMGWNRQAPGKERELVAAISSSGGRTYYADSVKGRFTISRDNAKNTVYLQMNSLKPEDTGVYYCNADVQWNIWEYDYWGQGTQVTVSS	high polyreactivity
QVQLVESGGGLVQAGGSLRLSCAASGSTFWLYVMGWYRQAPGKERELVAAISSSGGRTYYADSVKGRFTISRDNAKNTVYLQMNSLKPEDTAVYYCNKYGTALWRYYYWGQGTQVTVSS	high polyreactivity
QVQLVESGGGIDQAGGSLRLSCAATGLTFWLNPMGWYRQAPWKERELVAAIRYSGGGTYADSVKGRFTISRDNAKNTVSLQMNSLKQEVTAVYYCAALYNLGYPQFDYWGQGNQVTVSS	low polyreactivity
QVQLQESGGGLVQAGCSLRLSCAASGTISVHASMGWYRQAPGKERELVAGITDGANTYYADSVKGRFTISRDNSKNTVYLQMNSLKPEDTAVYYCAAYYGTEVHFTYWGQGTQVTVSS	low polyreactivity
QVQLVESGGGLVQAGGSLRLSCAASGLIFKIYAMGWYRQAPGKERELVASISSNGGTYYADSVKGRFTISRDNAKKTVYLQMNSLKPEDTAVYYCNAKRVARYQYGASYNYWGQGTQVTVSS	high polyreactivity
QVQLLESGGGLVKAGGSLRLSCAASGFTFYRYAMGWYRQAPGKERELVATINYSGGGTYYADSVKGRFTISRDNAKHTVYLQMNSLKPEDTAVYDCAAEDFDYAVLYDYWGQGTQVTVSS	high polyreactivity
QVQLVESGGGLVQAGGSLRLSCAASGRTFGVNAMGWYRQAPGKERELVAVISRSTGSTYYADSVKGRFTISRDNAKNTVYLQMNSLKPEDTAVYYCAAGFWVRGFRRFDYWGQGTQVTVSS	high polyreactivity
QVQLVESGGGLVQAGGSLRLSCAASGSTFGTYAMGWYRQAPGKERELVAAISSGDSTTYADSVKGRFTISRDNAKNTVYLQMNSLKPEDTAVYYCAARTFLMRNGGYNYWGQGTQVTVSS	low polyreactivity
